{"source": "paper PMC9609006", "proteins": {"B1": {"name": "HorGH1 (Halothermothrix orenii H 168; E166A/E354G/M299R) (protein)", "chain": "MAKIIFPEDFIWGAATSSYQIEGAFNEDGKGESIWDRFSHTPGKIENGDTGDIACDHYHLYREDIELMKEIGIRSYRFSTSWPRILPEGKGRVNQKGLDFYKRLVDNLLKANIRPMITLYHWDLPQALQDKGGWTNRDTAKYFAEYARLMFEEFNGLVDLWVTHNAPWVVAFEGHAFGNHAPGTKDFKTALQVAHHLLLSHGMAVDIFREEDLPGEIGITLNLTPAYPAGDSEKDVKAASLLDDYINAWFLSPVFKGSYPEELHHIYEQNLGAFTTQPGDMDIISRDIDFLGINYYSRRVVRHKPGDNLFNAEVVKMEDRPSTEMGWEIYPQGLYDILVRVNKEYTDKPLYITGNGAAFDDKLTEEGKIHDEKRINYLGDHFKQAYKALKDGVPLRGYYVWSLMDNFEWAYGYSKRFGLIYVDYENGNRRFLKDSALWYREVIEKGQVEAN"}, "B2": {"name": "HorGH1 (Halothermothrix orenii H 168; E166A/E354G) (protein)", "chain": "B1 chain with R299M"}}, "key": {"purified protein [1]": {"substrate": "OC[C@H]1O[C@H](F)[C@H](O)[C@@H](O)[C@@H]1O", "experiment": "purified protein", "conditions": "thioglycosynthase reaction; glycosyl donor; thiol acceptor p-nitrothiophenol"}, "purified protein [2]": {"substrate": "O=[N+]([O-])c1ccc(S)cc1", "experiment": "purified protein", "conditions": "thioglycosynthase reaction; thiol acceptor; donor α-D-glucopyranosyl fluoride"}}, "note": "Numbering of substitutions follows the chain as printed. Numbers in names are those of the source.", "data": [{"protein": "B1", "values": [{"measurement": "Km", "setting": "purified protein [1]", "value": 2.26, "unit": "mM"}, {"measurement": "Km", "setting": "purified protein [2]", "value": 3.82, "unit": "mM"}]}, {"protein": "B2", "values": [{"measurement": "Km", "setting": "purified protein [1]", "value": 2.12, "unit": "mM"}, {"measurement": "Km", "setting": "purified protein [2]", "value": 7.46, "unit": "mM"}]}]}
